Laboratory results as given in the supplement of paper PMC9732359.
± gives the uncertainty stated by the source.

Experiment: protein stability index of a GFP-peptide fusion (yeast GPS) (PSI 1-4); higher = more stable; sorted into four equal gates, so the index is relative within each strain
Outline: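 Each library plasmid carries Cherry plus GFP with a tiled 17-residue yeast protein peptide fused downstream, and the pooled library was carried in yeast. Mid-log cultures in leucine-free medium were sorted into four equal gates by GFP/Cherry ratio. Reads from Illumina sequencing of PCR-amplified plasmids from each gate were assigned to strains by barcodes. Per peptide, the protein stability index was computed as the summed products of gate read frequency and gate number.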

| Sequence | protein stability index (doa10∆) | protein stability index (pdr5∆) | protein stability index (san1∆) | protein stability index (ubr1∆) |
| --- | --- | --- | --- | --- |
| MQNSKVESVCQKLDILV [SMC4] | 2.26 ± 0.065 | 2.13 ± 0.059 | 2.3 ± 0.088 | 1.87 ± 0.056 |
| LSSAGAKSTVETFISSM [RIP1] | 3.08 ± 0.17 | 2.8 ± 0.13 | 2.86 ± 0.072 | 2.69 ± 0.11 |
| DITTSIMDNFLERTAIE [RPN1] | 3.21 ± 0.12 | 3.35 ± 0.17 | 3.22 ± 0.086 | 3.28 ± 0.12 |
| LALINYGRQELADDLIT [RPN2] |  | 1.82 ± 0.26 | 1.57 ± 0.28 | 1.49 ± 0.14 |
| DKVDDYTPEEVDKIERE [SMC4] | 1.17 ± 0.11 | 1.45 ± 0.12 | 1.32 ± 0.22 | 1.28 ± 0.11 |
| NLEQINEDLEDGHYIEE [REC8] | 2.93 ± 0.088 |  | 2.98 ± 0.16 | 3.2 ± 0.088 |
| MKVEVDSFSGAKIYPGR [RPL24B] | 3.11 ± 0.18 | 3.36 ± 0.15 | 2.52 ± 0.18 | 2.92 ± 0.18 |
| ISIKDNKLVMKSKFNKS [GAL11] | 2.51 ± 0.057 | 2.59 ± 0.064 | 3.2 ± 0.047 | 2.08 ± 0.068 |
| YDNGQVFPSSILDITDE [RPP0] | 1.91 ± 0.048 | 1.79 ± 0.077 | 2.42 ± 0.093 | 1.32 ± 0.073 |
| GHDADDGYQLFHAEPSG [PUP2] | 3.37 ± 0.19 | 2.97 ± 0.18 | 3.42 ± 0.079 | 3.1 ± 0.14 |
| TFDLTPEDAQLLLAANT [RPS0A] | 2.28 ± 0.054 | 1.88 ± 0.049 | 2.31 ± 0.088 | 2.45 ± 0.053 |
| GVSISVSFNSKQNEQLH [SMC3] | 1.87 ± 0.064 | 2.01 ± 0.065 | 2.7 ± 0.13 | 2.35 ± 0.11 |
| EVGNRKHYLEDKLKVYK [SNF5] | 3.19 ± 0.1 | 3.19 ± 0.14 | 3.11 ± 0.12 | 3.06 ± 0.067 |
| GLAVGLALINYGRQELA [RPN2] | 1.3 ± 0.11 | 1.21 ± 0.076 | 1.58 ± 0.24 | 1.09 ± 0.053 |
| VGVENNGQYAAFVKDMQ [RPC37] | 3.21 ± 0.12 | 2.79 ± 0.15 | 3.19 ± 0.092 | 3.41 ± 0.1 |
| LKLEYYNLLVKISLHKR [RPN5] | 1.38 ± 0.26 | 1.28 ± 0.26 |  | 1.13 ± 0.084 |
| LSDYNIQKESTLHLVLR [RPS31] | 2.78 ± 0.08 | 2.72 ± 0.051 | 2.23 ± 0.065 | 2.58 ± 0.058 |
| NKELPINHTILGKLQDV [RPN8] | 2.62 ± 0.051 | 2.69 ± 0.068 | 2.5 ± 0.064 | 2.67 ± 0.049 |
| TLDDLVTKWTNQLTESA [YJL041W/NSP1] | 2.76 ± 0.1 | 3 ± 0.099 | 2.85 ± 0.076 | 3.05 ± 0.061 |
| FQIEADFIGHNSNINTL [ASC1] | 2.1 ± 0.06 | 2.63 ± 0.049 | 2.35 ± 0.081 | 2.68 ± 0.043 |
| SEHDKKRLSAALSKFLT [YML103C/NUP188] | 2.99 ± 0.09 | 3.08 ± 0.09 | 3.06 ± 0.068 | 3.13 ± 0.071 |
| KFLQVMQKHGYIGEFEY [RPS22A] | 2.68 ± 0.063 | 2.27 ± 0.059 | 2.11 ± 0.092 | 2.6 ± 0.054 |
| QQQDQPEQSEQPEQHQD [RPN10] | 3 ± 0.052 | 3.12 ± 0.053 | 2.85 ± 0.046 | 3.24 ± 0.059 |
| IHSLVKQRLDLARQVKL [YIL149C/MLP2] | 2.69 ± 0.064 | 2.6 ± 0.061 | 3.03 ± 0.064 | 2.83 ± 0.047 |
| INSGLYSVLLESPLSVA [YML103C/NUP188] | 1.47 ± 0.058 | 1.18 ± 0.066 | 1.15 ± 0.18 | 1.14 ± 0.053 |

| Sequence | protein stability index (doa10∆) | protein stability index (pdr5∆) | protein stability index (san1∆) | protein stability index (ubr1∆) |
| --- | --- | --- | --- | --- |
| LFLIIQCYKIYDLVILK [YMR129W/POM152] | 1.29 ± 0.063 | 1.2 ± 0.045 | 1.16 ± 0.085 | 1.16 ± 0.044 |
| FERPAVKEEKEDMETQA [RPC53] | 2.87 ± 0.24 | 2.71 ± 0.23 | 3.2 ± 0.084 | 3.46 ± 0.16 |
| NTTDPLGHTKAALGEVA [SIR2] | 2.51 ± 0.065 | 2.69 ± 0.078 | 2.67 ± 0.088 | 3.08 ± 0.069 |
| LFSSRRLQAKRLKDVEW [RMP1] | 2.62 ± 0.084 | 2.79 ± 0.059 | 3.1 ± 0.079 | 1.68 ± 0.065 |
| KGLIKVNGSPITLVEPE [RPS16A] | 3.09 ± 0.095 | 3.42 ± 0.13 | 3.06 ± 0.082 | 3.24 ± 0.11 |
| KLRETLVKIDDLSANQR [SMC1] | 3.11 ± 0.11 | 3.29 ± 0.12 | 3.07 ± 0.11 | 3.09 ± 0.077 |
| LIIDGQIIFGVVEKKTV [RPO21] | 1.37 ± 0.087 | 1.38 ± 0.065 | 1.2 ± 0.2 | 1.54 ± 0.07 |
| HENYIQDDDFPLDDAGT [MCD1] | 2.95 ± 0.054 | 2.98 ± 0.051 | 2.99 ± 0.041 | 3 ± 0.046 |
| SNLAATKSMVKIAEQYS [RPN11] | 2.83 ± 0.075 | 2.73 ± 0.064 | 3.04 ± 0.051 | 2.98 ± 0.063 |
| TNDGIERYSDKYLKKRK [RPC31] | 3.23 ± 0.13 | 2.98 ± 0.18 | 3.43 ± 0.15 | 2.88 ± 0.091 |
| QWYTLQSQLNVTLSQLV [MED8] | 1.54 ± 0.034 | 2.15 ± 0.032 | 1.85 ± 0.075 | 1.67 ± 0.032 |
| NPHDTLNRIKKYLLTQR [PRP8] | 2.22 ± 0.095 | 2.14 ± 0.08 | 2.25 ± 0.11 | 2.27 ± 0.15 |
| NAARKAEASGEAAEEAE [RPS9B] | 3.81 ± 0.29 | 3.39 ± 0.24 |  | 2.89 ± 0.28 |
| LGPLFKKIVDDTIMENP [IRR1] | 2.62 ± 0.071 | 2.88 ± 0.066 | 2.44 ± 0.13 | 2.82 ± 0.063 |
| ESSINTHPHAADGSSYM [SKI6] | 2.98 ± 0.047 | 3.22 ± 0.039 | 3 ± 0.035 | 3.05 ± 0.036 |
| RSISKELIVSEEIPINS [SIR3] | 2.07 ± 0.051 | 2.09 ± 0.051 | 2.07 ± 0.07 | 1.99 ± 0.036 |
| HQHGDKVDIFEIPETGE [FAS2] |  | 2.75 ± 0.28 |  | 2.54 ± 0.069 |
| AEDGSRSTKDMIDAVFE [SNF6] | 3.18 ± 0.06 | 3.38 ± 0.048 | 3.31 ± 0.042 | 3.14 ± 0.046 |
| INFKSREAIRPGHEMED [AAR2] | 3.33 ± 0.097 | 3.28 ± 0.091 | 3.44 ± 0.058 | 3.38 ± 0.084 |
| GRFLRVPKEGLFYFDSS [BRR2] | 3.18 ± 0.11 | 3.32 ± 0.073 | 3.3 ± 0.081 | 3.1 ± 0.054 |
| SLLDKPDEAIEKVFNAY [FAS1] | 3.15 ± 0.085 | 3.34 ± 0.099 | 3.2 ± 0.066 | 3.29 ± 0.078 |
| ISVTDTEVERAKSLLKL [COR1] | 3.3 ± 0.1 | 3.26 ± 0.084 | 3.08 ± 0.053 | 3.24 ± 0.084 |
| FPSSETTSLNPIQSKVF [BRR2] | 2.2 ± 0.093 | 2.52 ± 0.082 | 1.79 ± 0.14 | 2.33 ± 0.11 |
| AGQNATVAVMSYSGYDI [RET1] | 1.32 ± 0.039 | 1.38 ± 0.045 | 1.33 ± 0.086 | 1.66 ± 0.036 |
| FLKKVMDTIQDKLINDV [ECM29] | 3.08 ± 0.16 | 3.58 ± 0.2 | 2.95 ± 0.2 | 3.34 ± 0.15 |
